Measured values as given in paper doi:10.1101/788646.

Target: SlCGH1, choloylglycine hydrolase homolog Shew_0681 from Shewanella loihica PV-4 (Shewanella loihica PV-4)
Experiment: SEC + other: MALDI-TOF-MS

stoichiometry N: 2
Substance: SlCGH1, choloylglycine hydrolase homolog Shew_0681 from Shewanella loihica PV-4 (enzyme)
